Target: APOBEC3B with C-terminal 3xHA tag (A3Bi-3xHA) (human) (UniProt Q9UH17)
Assay: cell-based or functional assay

eGFP-positive 293T cells 72 hours post-transfection (chromosomal eGFP Leu202 reporter): 1.5%
episomal eGFP Leu202 reporter editing frequency against the BFP-Cas9n/gRNA background: > 2 fold
Substance: hnRNPUL1-Cas9n-UGI-NLS (heterogeneous nuclear ribonucleoprotein U-like fused to the N-terminal end of Cas9 nickase, in the BE3 vector in place of APOBEC1) (from UniProt Q9BUJ2 1-856; Q99ZW2 2-1368; P14739 2-84)

Source: US20210108188A1
